Earlier results in paper PMC3166974.
pKd: −log10 of the molar value.

Assays:
SecA (Escherichia coli) = SecA (Escherichia coli) (UniProt P10408)
PKR (Homo sapiens) = PKR (Homo sapiens) (UniProt P19525)

Substance | pKd (SecA (Escherichia coli)) | pKd (PKR (Homo sapiens))
SecA (from UniProt P10408) | 4.73 | –
PKR (from UniProt P19525) | – | 3.30
